The source of these data is article PMC8510529 (mBio, 2021).

Assay [1] has as its target T1, recombinant soluble WNV NS1 protein (Native Antigen) (West Nile virus, strain of bought …, UniProt Q9Q6P4).
T1 construct: also called recombinant WNV NS1; recombinant, hexameric WNV NS1; source: bought: Native Antigen
In words: ELISA. The following applies: both partners purified.

In assay [2] the target is T2, full-length WNV NS1 (strain 382-99), wild type, expressed in HEK293T cells (West Nile virus, New York 1999, strain …, UniProt Q9Q6P4).
T2 construct: also called WT NS1; WT WNV NS1; source: HEK293T, transfected (pFM-A1.2), on fixed cells
T2 sequence (Q9Q6P4 792-1143): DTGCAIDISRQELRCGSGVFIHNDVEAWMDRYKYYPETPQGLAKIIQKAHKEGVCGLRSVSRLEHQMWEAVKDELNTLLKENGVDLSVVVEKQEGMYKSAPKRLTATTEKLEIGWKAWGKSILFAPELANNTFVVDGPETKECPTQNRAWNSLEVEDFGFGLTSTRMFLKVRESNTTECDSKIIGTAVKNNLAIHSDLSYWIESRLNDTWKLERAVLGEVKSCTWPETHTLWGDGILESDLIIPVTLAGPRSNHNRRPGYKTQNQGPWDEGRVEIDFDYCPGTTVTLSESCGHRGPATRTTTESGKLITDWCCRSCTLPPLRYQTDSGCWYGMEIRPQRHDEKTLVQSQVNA
In words: flow cytometry on cells. The following applies: one partner purified.

Assay [3] addresses T3, JEV NS1 protein (Native Antigen) (Japanese encephalitis virus, strain not …, UniProt P27395).
T3 construct: source: bought: Native Antigen
The experiment in a line: ELISA. The following applies: both partners purified. A general note: ELISA stands for enzyme-linked immunosorbent assay.

Assay [4] addresses T4, TBEV NS1 protein (Native Antigen) (Tick-borne encephalitis virus, strain …, UniProt P14336).
T4 construct: source: bought: Native Antigen
In words: ELISA. To be noted: both partners purified.

Assay [5] has as its target T5, DENV2 NS1 protein (Native Antigen) (Dengue virus type 2, strain  …, UniProt P29990).
T5 construct: source: bought: Native Antigen
In words: ELISA. To be noted: both partners purified.

T4 sequence (P14336 777-1128): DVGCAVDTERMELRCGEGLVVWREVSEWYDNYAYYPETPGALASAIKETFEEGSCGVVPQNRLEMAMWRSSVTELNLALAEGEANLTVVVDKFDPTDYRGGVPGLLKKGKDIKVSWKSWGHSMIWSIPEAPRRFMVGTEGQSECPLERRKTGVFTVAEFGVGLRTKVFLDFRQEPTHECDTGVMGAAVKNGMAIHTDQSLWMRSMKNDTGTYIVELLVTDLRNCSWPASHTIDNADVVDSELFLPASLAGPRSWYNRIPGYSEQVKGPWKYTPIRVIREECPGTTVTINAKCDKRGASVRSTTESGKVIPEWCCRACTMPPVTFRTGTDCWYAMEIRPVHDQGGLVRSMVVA
T3 sequence (P27395 795-1146): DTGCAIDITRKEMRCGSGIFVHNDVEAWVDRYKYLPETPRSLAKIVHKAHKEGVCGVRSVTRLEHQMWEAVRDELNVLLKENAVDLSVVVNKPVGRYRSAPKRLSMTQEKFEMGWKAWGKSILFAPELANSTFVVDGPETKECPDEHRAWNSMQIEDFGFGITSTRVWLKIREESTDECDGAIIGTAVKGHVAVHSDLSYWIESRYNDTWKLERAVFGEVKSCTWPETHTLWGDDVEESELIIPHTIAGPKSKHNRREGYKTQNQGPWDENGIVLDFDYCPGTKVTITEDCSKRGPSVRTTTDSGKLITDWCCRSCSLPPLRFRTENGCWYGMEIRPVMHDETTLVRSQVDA
T1 sequence (Q9Q6P4 792-1143): as the sequence (Q9Q6P4 792-1143) above
T5 sequence (P29990 776-1127): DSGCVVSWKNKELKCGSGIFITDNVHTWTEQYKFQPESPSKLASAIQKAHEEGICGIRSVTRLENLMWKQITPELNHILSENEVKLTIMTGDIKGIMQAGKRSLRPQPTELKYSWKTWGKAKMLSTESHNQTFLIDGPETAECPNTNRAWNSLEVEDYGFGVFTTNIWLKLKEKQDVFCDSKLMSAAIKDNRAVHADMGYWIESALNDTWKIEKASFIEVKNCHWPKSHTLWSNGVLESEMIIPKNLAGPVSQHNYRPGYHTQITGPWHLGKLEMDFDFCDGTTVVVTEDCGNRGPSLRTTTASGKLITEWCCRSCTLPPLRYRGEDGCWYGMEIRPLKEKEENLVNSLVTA

B1: WNV-120 (antibody, V domains shown)
VH: KVQLEESGGGWVKPGRSLRLSCGASGFRFDDYAMHWVRQVPGKGLEWVSGISWDSDGIGYADSVKGRFTISRDNAKNSLFLQMNSLRAEDTALYYCVKDKGWLIQGRFDSWGQGIRVTVSS
VL: DIVVTQSPDSLAVSLGERVTINCKTSQSVLYTFNNQNYLAWYQQKSGQPPKLLIYWASTRESGVPDRFSGSGSGTDFTLTISRLQAEDVAVYYCQQFYISPPGTFGQGTKVEIK
B1: the binding result in assay [1], in assay [2] and in assay [3] was “binds” throughout.

B2: WNV-100 (antibody, V domains shown)
VH: QLQLQESGSGLVKPSQTLSLTCTVSGDSIGSGGFSWTWIRQPPGKGLEWIGNIYHSGGTYYNPSLKSRVTISIDNSTHFSLKLSSVTAADSAVYYCARDRGMVIKRRPWSYGLDVWGQGTTVSVSS
VL: QSVLTQPPSASGTPGQRVTISCSGGSSNIGSNSVSWYQHLPRTAPKLLIYSNNQRSSGVPDRFSGSKSGTSASLAISGLQSDDEADYYCAAWDDSLHVLFGGGTKLTVL
In the case of B2, the binding result in assay [1], in assay [2], in assay [4], in assay [5] and in assay [3] was “binds” throughout.

B3: WNV-116 (antibody, V domains shown)
VH: QMQLVESGGGVVQPGRSLRLSCVASGFNFKTYVMNWVRQAPGKGLEWVAVILSDGDNKYYADSVKGRFTISRDNSKNTLFLQMDSLRADDTAVYYCTRVPHCSTSSCYKEYYNYYMDVWGKGTTVSVSS
VL: EIVLTQSPATLSLSPGDRATLSCRASQSLSTSLAWYQQKPGQAPRLVIYDASNRAADIPARFSGSGSGTDFTLTIRSLEPEDFAVYYCQQRSNWPPRYTFGQGTKLEIK
B3: the binding result in assay [1] and in assay [2] was “binds” each time.

B4: WNV-95 (antibody, V domains shown)
VH: QVQLQESGPGLVKPSQTLSLTCTVSGGSINSGAFYWSWIRQHPGKGLEWIGFIYYSGSTYYNPSLRSRVTISVDTSKNQFSLKLISVTAADTAVYYCARDRPDDPGPYFDSWGRGTLVTVSS
VL: QSALTQPASVSGSPGQSITISCTGTSNDVGRYNSVSWYQQHPGNAPKLMIYDVSNRPSGVSNRFSGSKSGNTASLTISGLQAEDEADYYCSSYTSSSSVVFGGGTKLTVL
B4: the binding result in assay [1] and in assay [2] was “binds” throughout.

B5: WNV-113 (antibody, V domains shown)
VH: QITLKESGPTLVKPTQTLTVTCTFSGFSLNTNGVGVGWIRQPPGKALEWLALIYWDDVKRYRPSLESRLTITKDTSKNQVVLTMTDMDPVDTGTYYCAHRFHSRGWYTFDYWGQGTRVTVSS
VL: SYVLTQPPSVSVAPGQTARITCGGNNIGGKNVHWYQQKPGQAPVLVVYDDNDRPSGIPERFSGSNSGNTATLTISRVEAGDEADFYCQVWDSNSEHVVFGGGTKLTVL
Consider B5, for which the binding result in assay [1] and in assay [2] was “binds” in each case.

B6: WNV-96 (antibody, V domains shown)
VH: QVQLVQSGAEVKKPGASVKVSCRPSGYIFTNYYIEWVRQAPGQGLEWMGIINPSGGKTTYAQKFQGRVTMTSDTSTSTVYMELSSLRSDDTAVYYCARDGNGSDYWGQGTRVTVSS
VL: DVQMTQSPSSLSASVGDRVTITCRASQNINNYLNWYQQKPGRAPKLLIYATSNLESGVPSRFSGSRSGADFTLTISSLQPEDFASYYCQQSYNAPRTFGHGTKVEIK
notes: also called IgG1-WT variant of WNV-96
On to B6, for which the binding result in assay [1] and in assay [2] was “binds” in each case.

B7: WNV-103 (antibody, V domains shown)
VH: EVQLVESGGGLLQPGGSLRLSCAASGFSFSRYWMHWVRQAPGKGLIWVSRINTDGSTTIYADSVKGRFTVSRDNAKNTLFLQMSRLRPEDTAVYYCARVIASPGISYGMDVWGHGTTVTVSS
VL: SHELTQPPSVSVSPGQTATITCSGDALPKQYAYWYQQKSGQAPVLVIYKDTKRPSGIPERFSGSSSGTVVTLTISGVQAEDEADYYCQSADISSTYVVFAGGTKLTVL
Regarding B7, the binding result in assay [1] and in assay [2] was “binds” each time.

B8: WNV-98 (antibody, V domains shown)
VH: QVQLVESGGGLVKPGGSLRLSCAASGFPFTNYYMSWIRQAPGKGLEWISYITSRGDTAYYADSVKGRFTVARDNSKNSLYLQMNSLRAEDTAMYFCARGGDDYADSWGQGILVTVSS
VL: EIVLTQSPATLPLSPGERATLSCRASQSINTNLAWYQQKPGQAPRLLIYETSHRASAIPARFSGSGSGTDFTLKISSLEPEDLAIYYCQQYRNWPQTFGQGTRLEIK
Consider B8, for which the binding result in assay [1] and in assay [2] was “binds” in each case.

B9: WNV-97 (antibody, V domains shown)
VH: QVQLVESGGGLVQPGGSLRVSCAASGFTFSTYEMNWVRQAPGKGLEWVSYISNSGTIIYYADSVKGRFTISRDNAKNSLYLQMNSLRAEDTAIYYCGRVLRDRDVVAGPPARVWDYYYYGMDVWGQGTTVTVSS
VL: DIVMTQSPLSLPVTPGEPASISCRSSQSLLHSSGYNCLDWYLQKPGQSPQLLIYLRSNRASGVPDRFSGSGSGTDFTLKISRVEAEDVGVYYCMQTLQTPWTFGQGTKVEIK
As for B9, in assay [4], the binding result is given as “binds”.

B10: WNV-104 (antibody, V domains shown)
VH: QVQLVESGGGVVQPGTSLRLSCAASGFTFRSYGMHWVRQAPGKGLEWVALIWYDGSNKYYADSVKGRFTISRDNSRSTLYLQMNSLRAEDTAVYYCARDLGEYDSLVGPLYTARLGYWGQGTLVTVSS
VL: DIQMTQSPSSLSASVGDRVTMTCQASQDISNYLNWYQQKPGKAPNLLIYDASNLETGVPSRFSGSGSGTDFTFTISSLQPEDIATYYCQQYDNLPITFGQGTRLEIK
Regarding B10, the binding result in assay [1] and in assay [2] was “binds” in each case.

B11: WNV-117 (antibody, V domains shown)
VH: EVQLLESGGGLVQPGGSLRLSCAASGFTFSNYAMSWVRQAPGKGLEWVSSISDRGDYTYYADSVKGRFTISRDKSRNTLYLQIKSLRAEDTAVYYCAKCWGRGSYSGIPD
VL: DIQMTQSPSSLSASVGDRVTISCQASHDITNFLNWYQQKPGKAPKLLIYDASNLEAGVPSRFSGSGSGTDFTFTISSLQPEDIATYYCQQYDNLFITFGQGTRLEIK
As to B11, the binding result in assay [1] and in assay [2] was “binds” throughout.

B12: WNV-99 (antibody, V domains shown)
VH: QVRLVESGGGVVQPGRSLRLSCAASGFTLSSYGMHWVRQAPGKGLEWVAIISYDGSDKYYADSVKGRFTISRDNSKNTLYLQMNSLRPEDTAMYYCAKPDRSSSPFAHWGQGTLVTVSS
VL: SYELTQPPSVSVSPGQTARITCSGDALPKQYAFWYQQKPGQTPVVVISKDSERPSGIPERFSGSSSGTTVTLTISGVQAEDEADYYCQSADSSGIWVFGGGTKLTVL
In the case of B12, the binding result in assay [1], in assay [2], in assay [4] and in assay [3] was “binds” throughout.
